{"source": "paper PMC4513098", "about": "“Ordered Regions of Channel Nucleoporins Nup62, Nup54, and Nup58 Form Dynamic Complexes in Solution*” (The Journal of Biological Chemistry, 2015)", "binders": {"B1": {"name": "wild-type Nup54 (453–494), Nup58-cognate segment of Nup54 (domain or fragment, Rattus norvegicus, UniProt P70582 453-494, looked up)", "chain": "EEKYYIDADLLREIKQHLKQQQEGLSHLISIIKDDLEDIKLV", "notes": "also called Nup54 segment; wt Nup54 (453–494)"}}, "target": "T1, Nup58(239–415), entire ordered region of Nup58 from Rattus norvegicus, His6 tag cleaved (Rattus norvegicus, UniProt P70581 239-415)", "T1 construct": "Nup58, Rattus norvegicus, residues 239-415 (entire ordered region); source: co-expressed with Nup54 and Nup62 from a polycistronic vector; not shown: His6, N-terminal, cleaved", "T1 sequence": "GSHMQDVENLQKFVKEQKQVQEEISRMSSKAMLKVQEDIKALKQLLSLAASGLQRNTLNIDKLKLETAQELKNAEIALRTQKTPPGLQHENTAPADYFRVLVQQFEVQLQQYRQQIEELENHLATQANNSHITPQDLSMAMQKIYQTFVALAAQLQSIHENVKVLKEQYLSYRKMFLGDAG", "experiment": "SEC; competition: preassembled triple complex (1.5 mg/ml) incubated with Nup54 (453–494) wild type or H469F/Q473L (0.6 mg/ml), then size-exclusion chromatography and SDS-PAGE of column fractions", "conditions": "both partners purified", "data": [{"binder": "B1", "values": [{"measurement": "binding result", "result": "binds"}]}]}
